{"source": "patent US12692310B2", "about": "“ASIC1 channel antagonist antibody” (ShanghaiTech University, priority 2019, dated 2026)", "molecules": {"B1": {"name": "ASC06-Fab: antigen-binding fragment of ASC06-IgG1 prepared by digesting ASC06-IgG1 with papain (antibody, V domains shown)", "VH": "QVQLQQSGGGLVQPGGSLRLSCAASGFTFSSYAMSWVRQAPGKGLEWVSAISGSGGSTYYADSVKGRFTISRDNSKNTLYLQMNSLRAEDTAVYYCAKDSFYGYSKGDWGQGTLVTVSS", "VL": "QSALTQPASVSGSPGQSITISCTGTSSDVGAYNYVSWYQQQPGKAPKLMIYGVSNRPSGVSNRFSGSKSGNAASLTISGLQAEDEADYYCSSYTSSSTYVFGTGTKLTVLG"}}, "key": {"[1]": {"molecular_target": "T1, hASIC1a-ECD (Homo sapiens, UniProt P78348)", "T1 construct": "The ectodomain of hASIC1a (hASIC1a-ECD) with an N-terminal fused IL-2 tag and Flag tag; IL-2 tag (N); made in house; host or cells: HEK293F", "T1 sequence (P78348 67-427 limits assumed)": "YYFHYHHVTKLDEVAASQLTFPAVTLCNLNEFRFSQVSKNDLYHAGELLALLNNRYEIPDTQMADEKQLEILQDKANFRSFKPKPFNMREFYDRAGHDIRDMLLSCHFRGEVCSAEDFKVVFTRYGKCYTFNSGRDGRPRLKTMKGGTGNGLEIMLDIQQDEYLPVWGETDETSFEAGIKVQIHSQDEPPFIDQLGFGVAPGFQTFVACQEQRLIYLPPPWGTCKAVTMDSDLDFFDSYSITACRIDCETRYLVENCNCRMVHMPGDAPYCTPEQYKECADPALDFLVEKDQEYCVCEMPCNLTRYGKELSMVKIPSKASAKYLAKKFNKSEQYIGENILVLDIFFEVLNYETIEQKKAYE", "assay": "Gel filtration of hASIC1a-ECD and ASC06-Fab complex", "format": "binding", "conditions": "Superdex 200", "protocol": "(§1) Negative Stain Electron Microscopy (EM): (1) Sample Preparation and Data Collection. The antigen-binding fragment of ASC06-IgG1 (ASC06-Fab) was prepared by digesting ASC06-IgG1 with papain followed by protein A affinity purification and gel filtration. The ectodomain of hASIC1a (hASIC1a-ECD) with an N-terminal fused IL-2 tag and Flag tag was expressed in HEK293F cells and purified by anti-Flag M2 magnetic beads and gel filtration using PBS buffer, pH 7.4. The ASC06-Fab and hASIC1a-ECD were incubated at a molar ratio of 3:1 in PBS buffer, pH 7.4, overnight at 4° C. to form a tertiary complex. This complex was further isolated by gel filtration. […] The peak fractions containing this complex were collected and subjected to negative staining EM.\nTo understand the nature of binding of ASC06 to hASIC1a, a complex was formed by mixing hASIC1a-ECD and ASC06-Fab. The complex, hASIC1a-ECD and ASC06-Fab were resolved using gel filtration."}, "[2]": {"molecular_target": "T1, hASIC1a-ECD", "assay": "Negative stain electron microscopy of hASIC1a-ECD/ASC06-Fab complex", "conditions": "negative staining EM", "protocol": "as §1\nThe EM samples were prepared by diluting the purified complex of hASIC1a-ECD and ASC06-Fab to 0.01 mg/mL. […]\nAll micrographs were recorded with a Tecnai G2 Spirit transmission electron microscope (FEI) equipped with an LaB6 cathode operated at 120 kV and a 4,000×4,000 Eagle CCD camera at a calibrated magnification of 67,000 times, resulting in a pixel size of 1.74 Å.\nEMI mage Processing and 3D Reconstruction. […] All of the recorded micrographs were first decimated twofold (resulting in a pixel size of 3.48 Å). […]"}}}
{"molecule": "B1", "values": [{"measurement": "complex formation with hASIC1a-ECD homotrimer", "setting": "[1]", "value": "formed a stable complexes"}, {"measurement": "location of epitope", "setting": "[2]", "value": "located on a surface formed by two hASIC1a-ECD subunits"}]}
